Results published in the nanobody polyreactivity screen of Harvey et al. (2022).

Assay: yeast display, Sf9 membrane polyspecificity reagent, FACS + sequencing; frameworks hold sequencing errors
Summary of the method: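 Synthetic nanobody libraries on Saccharomyces cerevisiae BJ5465 were galactose-induced for 36–48 hours, stained 1 hour at 4 °C with 10% biotinylated, detergent-solubilized Sf9 membrane reagent and enriched on streptavidin microbeads. FACS then separated cells into low and high (top ~1%) gates by anti-HA (expression) and streptavidin (reagent binding) fluorescence. Genes were colony-PCR amplified, MiSeq 2 × 250 sequenced and CDR-length filtered. A clone's polyreactivity label is that of its gate of origin.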

Sequence | polyreactivity (PSR sort gate)
QVQRVETGGGLVQARGSLRLSCAASGRIFACYTMGWFRQAPGKERELDAAISWNGGRTYYADSVKGRFTISRDNAKNTVYLQMNSLKPEDTAVYYCAAGKTPQKYGGFNYWGQGTQVTVSS | high polyreactivity
QVQLVESGVCLVQAGGSLRLSCAATGFTIKYYAMGWYRQPPGKEMELVAAISWTGANTYYADSVKGRFTISRDNAKNTVYLQMNSLKPDYTAVYYCAAGYLIGHSVRTTVRTIYEYWGQGTQVTVSS | high polyreactivity
QVQLVESGGGLVQAGGSLRLSCAASGSIFYHYAMGWYRQAPGKERELVAGITSSGDRTHYADSVKGRFTISRDNAKNTVYLQMNSLKPEDTAVYYCNTATIHGTAYDYWGQGTQVTVSS | low polyreactivity
QVQLVESGGGLVQAGGSLRLSCAASGFIFGQYALGGYRQAPGKERELVAVITSSGGRTYYADSVKGRFTISRDNAKNTVYLQMNSLKPEDTAVYYCAAPGYGLQVRGRYGYWGQGTQVTVSS | high polyreactivity
QVQLVESGGGLVQAGGSLRLSCAASGSIFAYYAMGWSRQAPGKERELVASIDWSGDLYVRDSVKGRFTISRDNAKNTVYLQMNSLKPEDTAVYYCAADVGFGVVFYDYWGQGTQVTVSS | low polyreactivity
QVQLVESGGGLVQAGGSLRLSCAASGFTFGSYAMGWYRQAPGKERELVAAISWGGGSTYYADSVKGRFTISRDNAKNTVYLQMNSLKPEDTAVYYCNADAISSFGYWGQGTQVTVSS | high polyreactivity
QVQLVESRGVLDQARGSLRLSCAATGSIFKPYAMGWYRQEPGKEMELVAAISGIGGSTYYADSVKGRFTIARDNAKNTVYLQMNSLKPEVTAVYYCAALTGFYNLRPYGYWGQGTQVTVSS | high polyreactivity
QVQLVESGGGLVQAGGSLRLSCAASGSTFYPNAMGGYRQAPGKERELVATITQRGGTTYYADSVKGRFTISRDNAKNTVYLQMNSLKPEDTAVYYCNAGPVRLPYDSWGQGTQVTVSS | low polyreactivity
QVQLVESGGGLVQAGGSLPLSCAASGSTFGYNAMGWYRQAPGKERELVAAITWTGASTYYADSVKGRFTISRDNAKNTVYLQMNSLKPEDTAVYYCNARFGKRGYSPPYDYWGQGTQVTVSS | low polyreactivity
QVHLVESGGGLVQAGGSLRLSCAASRSTFVNYAMGWYRQAPGKERELVAGISRSGGSTYYADSVKGRFTISRDNAKNTVYLQMNSLKPDDTAVYYCAKRYGRLTRYDYWGQGTQVNVSS | high polyreactivity
QVQLVESCGGIVQAGGSHRLSCAASGSIFAWYAMGWYRQAPGKERELVAAITYTGGRTYYADSVKGRFTISRDIAKYTVYLQMISLNPEDTAVFYCAKDGPATVRRGYDYWGQGTQVTVSS | high polyreactivity
QVQLVESGGGLVQAGGSLRLSCAASGSIVRYSVGWYRQAPGKERELVAAISIGGTTYYADSVKGRFTISRDNAKNTVYLPMNSLKPEDTAVYYCNVRRRTWHYITSMDYWGQGTQVNVSS | high polyreactivity
QGQLVESGGGLVQAGGSLRLSCAASGSIFRAYAMGWNRQAPGKERELVAAISWGGGSTSYADSVKGRFTISRDNAMNTVYLQMNSLKPEDTAVYYCAAELYLSRLRYWYDYWGHGTQVTVSS | high polyreactivity
QVQLVESGGGLVQAGGSLRLSCAASGSTFARNAMGWYRQAPGKERDLVAAITWSGGNTYYADSVKGRFTISRDNAKNTVYLQMNSLKPEDSAVYYCNKATRHHFYYWGQGTQVTVSS | high polyreactivity
QVQLVESGGGLVQAGGSLRLSCAASGSILVNMGWSRQAPAKERELVAAIRYGGGRTYYADSVKGRFTISRDNAKNTVYLQMNSLKPEDTEVYYCAKKYIWVWAPAKQYGFDSWGQGTQVTVSS | low polyreactivity
QVQLVESGGGLVQAGCSLRLSCAASGSTFYYNAMGWYRQAPGKERELVAAITFTGGSTYADSVKGRFTISRDNAKNTVYLQLNSLKPEDTAVYYCAATIEGHDYLGTGYDYWGHGTQVTVSS | low polyreactivity
QVQLVESGGGLVQAGGSLRLSCAASGSIFLVNAMGWYRQAPGKERELVAAITYGGDSTYYADSVKGRFTISRDNAKNTVYLQMNSLKPEDTAVYYCAADAWVGWHDEYDYWGQGTQVTVSS | low polyreactivity
QVQLVESGGGLVQAGGSLRLSCAASGSTFNYYAMGWYRPAPGKERELVAAICSRSSRTFYADSVKGRFSISRDNEKNTVYLQMNSLKPEDTAVYYCAVKKRAPDGDYWGQGSQVTVSS | high polyreactivity
QVQLVESGGGLVQAGGSLRLSCAASGRTFRKYAMGWYRQAPGKERELVAALSWYGGSTYYANSVKGRFTISRDNAKNTVYLQMNSLKPEDTAVYYCAAVPVHTGSLYWGFTTCYDYWGQGTQVTVSS | low polyreactivity
QVQLVESGGGLDQAGGSLRLSCAASGNIFYGNAMGWSRQAPGKERELVAGITSGGSTNYADSVKGRFTISRDTAKNTVYLQMTSLKPEDTAVYYCNATSSGSIFGYEYWGQGTQVTVSS | low polyreactivity
QVQLVESGGGLVQAGGSLRLSCAASGFTSGNYAMGWYRQAPGKEREFVAAITWGDGSTFYADSVKGRFTISRDNAKNTVYLQMNSLKPEDTAVYYCAADYSRTYRAYDYWGQGTQVTVSS | low polyreactivity
QVQLVESGVGLVQAGGSLRLSCAASGGIFVPYAMGWYRQAPGKERELVAGITSGGSTNYADSVKGRFTISRDNAKNTVYLQMNSLKPEDTAVYYCAARRRPGGRYKSRVWYDYWGQGTQVTVSS | high polyreactivity

Sequence | polyreactivity (PSR sort gate)
QVQLVESGGGLVQAGGSLRLSCAASGFTFYYYAMGWYRQAPGKERELVAAISTRDGNTYYADSVKGRFTISRDNAKNTVYLQMNSLKPEDTAVYYCAADYFRYYPYDYWGQGTQVTVSS | low polyreactivity
QVQLGESGGGLVQAGGSRRFSSAASGSIVKAYAMGWYRPAPGKDRELVAAISTSDGSTYYADSVKGRFTISRDNAKNTVYLQMNSLKPEDTAVYYCATEYDYWDDSYDSWGQGTQVTVSS | low polyreactivity
QVQLVESGGGLVQAGGSLRLSCAASGNTFYGYAMGWYRQAPGKERELVASITLSGDSTYYADSVKGRFTISRDNAKKTVYLQMNSLKPEDTAVYYCAGVYTYPLGYYHYTYDYWGQGTQVTVSS | low polyreactivity
QVQLVESGGGLVQAGGSRSLSCAASGSTFYSYAMGWYRQAPGKERELVAAINWDGVSTYYADSVKGRFTISRDNAKNTVYLQMNSLKPEDTAVYYCAAELFSGYRISGTYYYWGQGTQVTVSS | low polyreactivity
QVQLVESGGGLVQAGGRLRLSCAASGRTFGYYTMGWYRQAPGKERELVATIRWSGGSTYADSVKGRFTISRDNANNTVYLQMNSLKPEDTAVYYCARRLFSWGAPFGYWGQGTQVTVSS | high polyreactivity
QVQIVESGGGLVQAGGSLRLRCAASGRTFRDNAMGWSRQAPGKERELVAAIDIDSSTYYADSVKGRFTISRDNAKNTVYLQMISLKPEDTAVYYCAAESYHDGIGFPDYEYWGQGTQVTVSS | low polyreactivity
QVQLVESGGGLVQAGGSLRLSCAASGSIVTSNAMGWYRQAPGKERELVAAITSSSSTNYADSVKGRFTISRDNAKNTVYLQMNSLKPEDTAVYYCAADYTWYYPYWIMDYWGQGTQVTVSS | low polyreactivity
QVQLVESGGGLVQAGGSLRLSCAASGRTFYYYYTMGWYRQAPGKERELVAAISRSGSTNYADSVKGRFTISRDNAKNTVYLQMNSLKPEDTAVYYCAKETNRVGRYHCGQGTQVTVSS | low polyreactivity
HVQLVESGGGLVQAGGSLRLSCAASGRILRRNAMGWYRQAPGKEREFVAAITWRGGSTYYADSVKGRFTISRDNAKNTVYLQMNSLKPEDTAVYYCAADTYSVEYVLPYYYWGQGTQVTVSS | high polyreactivity
QVQLVESGGGLVQAGGSLRLSCAASGRIFTYNAMGWYIQAPGKERELVAAISSSVGSTYYADSVKGRFTISRDNAKNTVYLQMNSLKPEDTAVYYCAAYSYRNLRFYYWGQGTQVTVSS | high polyreactivity
QVQLVETVGGLVQAGGSLRLSCAASGSTFYRYAMGWYRQAPGKERELVAAISSSGGSTYYADSVKGRFTISRDNAKNSVYLQMNSLKPEDSAVYYCNAARNFRYDYWGQGTQVTVSS | high polyreactivity
QVQLVESGGGLVQAGGSLRLSCAASGSTFVRNAMGWYRQAPGKERELVAGISTGDNTYYADSVKGRFTISRDNAKNTVYLQMNSLKPEDSAVYYCAARGLPSNYYYYVHGYIMDYWGQGTQVTVSS | low polyreactivity
QVQLVESGGGLVQAGGSLRLSCAASGSIFEANVMGWYRQAPGKERELVASISSDGTSTYYADSVKGRFTISRDNAKNTVYLQMNSLKPEDTAVYYCNADAGAGWYPDSKYDYDYWGQGTQVTVSS | low polyreactivity
QVQLVESGGGLVQAGGSLRLSCAASGRISTYTMGWYRQAPGKERELVATISTDASTNYADSVKGRFTISRDNAKNTVYLQINSLKPEDTAVYYCAAVIVNQYYDYWGQGTQVTVSS | low polyreactivity
QVQLVESGGGLVQAGGSLRLSCAASGFIFETYVMGWYRQAPGKVRALVAAISGGGSTYYADSVKGRFTMSRDNAKNTVYLQMNSLKPEDTAVYYCAAGSWRARSYYHYYYWGQGTQVTVSS | high polyreactivity
QVQLVESGGGLVQAGGSHRLSCSASGLTFSYYAMGGYRQEPGKERELVAAITRTGDRTYYADSVKGRFTISRDNAKNTVYLQMNSLKPEDTAVYYCAAKWRIVGSRQWYDYWGQGTQVTVSS | high polyreactivity
QVQLVESGGGLVQAGGSLRLSCAASGSTFSHYTMGWYRQAPGKERQLVAAINYGGASTYDADSVKGRFTISRDNAKNTVYLQMNSLKPEDTAVYYCAAAYRPSEQYNYWGQGTQVTVSS | low polyreactivity
QVQLVESGGGLVHAGGSLRLSCAASGRIFVGYYAMGWYRQAPGKERELVAAITIGGRTYYADSVKGRFTISRDNAKKTVYLQMKSLKPEDTAVYYCAASKYSRAYQEFGYWGQGTQVTVSS | high polyreactivity
QVQLVESGGGLVQAGGSLRLSCAASGNIFDRYVMGWYRQAPGKERELVAAISVSGGSTYYADSVKGRFTISRDNAKNTVFLQMNSLKPEDTAVYYCAAHSRLINWYDYWGQGTQVTVSS | high polyreactivity
QVQLVESGGGLVQAGGSLRLSCAASGFILRYYAMGWYRQAPGKERELVAAISSGGGTYYADSVKGRFTISRDNAKNTVYLQMNSLKPEDTAVYYCAAVYWGLWHWLYTDDDGDYWGQGTQVTVSS | high polyreactivity
QVQLVESGGGLVQAGGSLRLSCAASGRTFKFYAMGWYRQAPGKERELVARITSNSGSTYYADTVKVRYTISRDNAKNTVYLQMNSLKPEDTAVYYCAARGRYRQFNYWGQGTQVTVSS | high polyreactivity
